Patent US20060199251

T1: Ac-IEPD-pNA (N-acetyl-L-isoleucyl-L-glutamyl-L-prolyl-L-aspartyl-p-nitroaniline)
T1 chain: IEPD

B1: GrB-H6 C228F (activated human Granzyme B variant, Cys228 (chymotrypsinogen numbering) to Phe, C-terminal hexa-His tag) (protein)
chain: MGSIEPDIIGGHEAKPHSRPYMAYLMIWDQKSLKRCGGFLIQDDFVLTAAHCWGSSINVTLGAHNIKEQEPTQQFIPVKRPIPHPAYNPKNFSNDIMLLQLERKAKRTRAVQPLRLPSNKAQVKPGQTCSVAGWGQTAPLGKHSHTLQEVKMTVQEDRKCESDLRHYYDSTIELCVGDPEIKKTSFKGDSGGPLVCNKVAQGIVSYGRNNGMPPRAFTKVSSFVHWIKKTMKRYLNSHHHHHH
B2: purified bovine blood clotting factor Xa (protein)
chain: ANSFLEEVKQGNLERECLEEACSLEEAREVFEDAEQTDEFWSKYKDGDQCEGHPCLNQGHCKDGIGDYTCTCAEGFEGKNCEFSTREICSLDNGGCDQFCREERSEVRCSCAHGYVLGDDSKSCVSTERFPCGKFTQGRSRRWAIHTSEDALDASELEHYDPADLSPTESSLDLLGLNRTEPSAGEDGSQVVRIVGGRDCAEGECPWQALLVNEENEGFCGGTILNEFYVLTAAHCLHQAKRFTVRVGDRNTEQEEGNEMAHEVEMTVKHSRFVKETYDFDIAVLRLKTPIRFRRNVAPACLPEKDWAEATLMTQKTGIVSGFGRTHEKGRLSSTLKMLEVPYVDRSTCKLSSSFTITPNMFCAGYDTQPEDACQGDSGGPHVTRFKDTYFVTGIVSWGEGCARKGKFGVYTKVSNFLKWIDKIMKARAGAAGSRGHSEAPATWTVPPPLPL

Tests used:
[1] = biological target: T1, Ac-IEPD-pNA …

Chain of H6-IEGR-RAP (P30533 whole entry, the tested form may be a part): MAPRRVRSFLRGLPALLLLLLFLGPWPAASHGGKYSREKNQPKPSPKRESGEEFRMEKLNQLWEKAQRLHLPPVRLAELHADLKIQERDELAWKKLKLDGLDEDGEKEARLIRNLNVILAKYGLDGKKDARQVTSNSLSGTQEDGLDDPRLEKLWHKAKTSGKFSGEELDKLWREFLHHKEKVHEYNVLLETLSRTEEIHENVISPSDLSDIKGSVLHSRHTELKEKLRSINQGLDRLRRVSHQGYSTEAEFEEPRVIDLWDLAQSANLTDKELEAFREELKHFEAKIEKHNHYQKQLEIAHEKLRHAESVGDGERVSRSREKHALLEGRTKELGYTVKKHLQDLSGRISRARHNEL

Row | Protein | KM (µM), colorimetric assay, Lineweaver-Burk plot, 100 mM HEPES pH 7.75, 20 nM enzyme [1] | kcat [1] | kcat/KM (10^4 s^-1M^-1) [1] | cleavage of fusion protein, SDS PAGE, 6 hours, protease:fusion protein 1:500 (H6-TripUB IEPD↓EG) | time to complete cleavage, protease to substrate ratio 1:500 (H6-TripUB IEPD↓EG) | fusion protein cleaved, SDS PAGE, 48 hours at 21° C., protease:fusion protein 1:500 (H6-TripUB IEPD↓EP) | fusion protein cleaved, SDS PAGE, 50 hours at 21° C., protease:fusion protein 1:500 (H6-TripUB IEPD↓EP) | cleavage of fusion protein, SDS PAGE, 24 hours at 23° C., protease:fusion protein 1:500 (H6-TripUB IEPD↓IV) | cleavage of fusion protein, SDS PAGE, 96 hours at 23° C., protease:fusion protein 1:500 (H6-TripUB IEPD↓SP) | fusion protein cleaved, SDS PAGE, 48 hours at 21° C., protease:fusion protein 1:500 (H6-TripUB IEPD↓SP) | cleavage of fusion protein, SDS PAGE, 24 hours at 23° C., protease:fusion protein 1:500 (H6-TripUB IEPD↓TQ) | cleavage by immobilized enzyme, non-reducing SDS-PAGE, room temperature over night (H6-TripUB IQAD↓SG) | cleavage by immobilized enzyme, non-reducing SDS-PAGE, room temperature over night (H6-TripUB IQAD↓SP) | fusion protein cleaved, SDS PAGE, 6 hours at 23° C., protease:substrate 1:1000 (H6Ubi-IEPD-ApoA1) | cleavage of fusion protein, SDS PAGE, ½ hour at 23° C., protease:fusion protein 1:1000 (H6-IEGR-RAP) | degradation of fusion protein, SDS PAGE, 27 hours at 23° C. (H6-IEGR-RAP) | fusion protein cleaved, SDS PAGE, 6 hours at 23° C., protease:substrate 1:1000 (H6Ubi-IEGR-ApoA1) | time to complete cleavage, 23° C., protease:substrate 1:1000 (H6Ubi-IEGR-ApoA1)
1 | B1 | 27 µM | 4.85 s⁻¹ | 180000 s^-1M^-1 | after only 6 hours the cleavage has been completed | it takes less than 5 hours for GrB-H6 C228F to complete the cleavage of H6-TripUbi IEPD↓EG | after 48 hours at 21 °C approximately 35-40% has been cleaved | after 50 hours at 21 °C approximately 40% has been cleaved | This is also the case for the cleavage of H6-TripUB IEPD↓IV (app. 100% completed after only 24 hours) | the cleavage is almost 100% complete after 96 hours | After 48 hours approximately 40% has been cleaved at 21 °C | this is app. 100% completed after only 24 hours | For all twelve cleavage experiments the fusion proteins are cleaved to give a single product corresponding to TripUbi moiety from which the H6 fusion partner has been cleaved off | For all twelve cleavage experiments the fusion proteins are cleaved to give a single product corresponding to TripUbi moiety from which the H6 fusion partner has been cleaved off | The GrB substrate, H6Ubi-IEPD-ApoA1, is approximately 100% cleaved after only 6 hours incubation at 23 °C |  |  |  | 
2 | B2 |  |  |  |  |  |  |  |  |  |  |  |  |  |  | After only ½ hour almost all of the fusion protein had been cleaved to give the correct product for both incubations | all of the fusion protein had been degraded to give a variety of smaller fragments after 27 hours, and there is no correctly cleaved product left | only a small fraction of the FXa substrate, H6Ubi-IEGR-ApoA1, has been cleaved after 6 hours | FXa requires more than 48 hours to complete the cleavage of the FXa substrate
